Source: US20050059089A1 (priority 2003, published 2005)
Read-outs that look alike come from different tables or passages of the source.

Tests used:
GPCR135 [1] = molecular target: T1, GPCR135 (Homo sapiens, UniProt Q9NSD7); experiment: Ca2+ mobilization assay, HEK293 cells co-expressing GPCR135 and Gα16; format: cell-based; set-up: expressed in transfected cells; host or cells: HEK293 with Gα16 or Gqi5 (Ca2+)
T1 sequence (Q9NSD7 1-469): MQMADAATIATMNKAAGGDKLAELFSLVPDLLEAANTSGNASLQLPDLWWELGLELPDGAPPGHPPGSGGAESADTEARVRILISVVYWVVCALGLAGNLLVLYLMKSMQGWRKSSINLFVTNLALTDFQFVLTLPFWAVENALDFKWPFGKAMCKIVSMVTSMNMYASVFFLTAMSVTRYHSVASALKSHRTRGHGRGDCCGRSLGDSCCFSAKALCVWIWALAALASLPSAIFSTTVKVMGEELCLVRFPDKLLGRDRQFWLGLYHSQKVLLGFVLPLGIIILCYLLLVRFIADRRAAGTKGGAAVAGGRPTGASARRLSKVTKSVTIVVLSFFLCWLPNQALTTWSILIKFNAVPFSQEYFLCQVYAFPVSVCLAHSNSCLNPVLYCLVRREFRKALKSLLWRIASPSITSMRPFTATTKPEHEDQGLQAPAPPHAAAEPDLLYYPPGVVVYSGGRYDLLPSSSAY

GPCR142 [2] = molecular target: T2, GPCR142 (Homo sapiens, UniProt Q8TDU9, L329S); experiment: Inhibition of forskolin-stimulated cAMP (CRE-β-galactosidase) in SK-N-MC cells; format: cell-based; set-up: The complete coding region of human GPCR142 was PCR-amplified from human genomic DNA; expressed in transfected cells; HEK293 co-transfected with Gqi5 (Ca2+); conditions: SK-N-MC cells stably expressing GPCR142
Method: SK-N-MC cells stably expressing GPCR142 were established by transfection of GPCR142 expressing plasmids into SK-N-MC cells harboring a β-galactosidase gene under control of multiple cAMP responsive elements. The stable transfectants were selected by culturing the transfected cells under G418 selection (400 mg/L). The receptor expressing cells were seeded in 96-well plates at a cell density of 30,000 cells/well. After 24 h, cells were stimulated with forskolin or different peptides. Cells were cultured for an additional 6 h and the intracellular β-gal activity, which represents the intracellular cAMP accumulation, was measured as described by Liu et al. (2000), Mol. Pharmacol., 59, 420-426.

[3] = tested on: HEK293 cells transfected by Gα16 alone; experiment: Ca2+ mobilization assay, HEK293 cells transfected by Gα16 alone; format: cell-based, human; conditions: cells expressing Gα16 alone (no receptor)
Method: Human embryonic kidney (HEK) 293 cells were transfected with GPCR135,.GPCR142 or co-transfected with Gqi5 (Conklin et al. (1993), Nature 363, 274-280) or Gα16 (Amatruda et al. (1991), Proc. Natl. Acad. Sci. U.S.A. 88, 5587-5591) expressing plasmids using LipofectAmine. Two days after transfection, cells were detached with PBS plus 10 mM EDTA. The detached cells were washed with DMEM-F12 medium (without phenol red, Invitrogen) and seeded in black poly-D lysine coated 96-well plates (BD Biosciences, San Jose, Calif.) at a cell density of 50,000 cell/well.

GPCR142 [4] = molecular target: T2, GPCR142; experiment: Radioligand binding assay with 125I-relaxin3 (saturation and competition), COS-7 cell membranes; set-up: The complete coding region of human GPCR142 was PCR-amplified from human genomic DNA; expressed in transfected cells; conditions: competition binding, COS-7 membranes; listed as unlabeled relaxin3
Method: (§1) The binding mixtures were incubated at room temperature for 1 h and then were filtered through 96-well GFC plates (Packard) and washed with ice-cold washing buffer: 50 mM Tris-HCl, pH 7.4. Fifty microliters of Microscint-40 were added to each well and the plates were counted in a Topcounter NTX (Packard). The radioligand binding results were analyzed using GraphPad PRISM software.
The binding assays were performed at room temperature for an incubation time of one hour. The binding mixtures were then filtered through GFC filters pre-saturated with 0.3 polyethylenimine (Sigma) and washed with cold binding buffer. The bound radioligand was counted in a top counter (TopCount/NTX, Packard) with Microscint-40. The results were analyzed by Prism 3.0 software.

GPCR135 [5] = molecular target: T1, GPCR135; experiment: Radioligand competition binding with 125I-relaxin3, COS-7 cell membranes; set-up: expressed in transfected cells; host or cells: COS-7 (membranes); conditions: COS-7 membranes, 100 pM radioligand
Method: as §1, with “Cell membranes from COS-7 cells transiently expressing GPCR142 were incubated with ^125I-relaxin3 either in the presence or absence of various concentrations of different competitors in 96-well plates at a final volume of 200 μL in binding buffer: 50 mM Tris-HCl (pH 7.4), 2 mM EDTA plus 0.5% BSA. The binding” for “The binding”
This binding assay was also performed using GPCR135.
To characterize INSL5 as the possible ligand for GPCR135 and GPCR142, cell membranes from COS-7 cells transiently expressing human GPCR135 or GPCR142 were used in the radioligand binding assays using [^125I)-relaxin3 as the radioligand as described by Liu et al. (2003a, 2003b). […] The binding assays were performed at room temperature for an incubation time of one hour. The binding mixtures were then filtered through GFC filters pre-saturated with 0.3 polyethylenimine (Sigma) and washed with cold binding buffer. The bound radioligand was counted in a top counter (TopCount/NTX, Packard) with Microscint-40. The results were analyzed by Prism 3.0 software.

T2 sequence (Q8TDU9 whole entry L329S): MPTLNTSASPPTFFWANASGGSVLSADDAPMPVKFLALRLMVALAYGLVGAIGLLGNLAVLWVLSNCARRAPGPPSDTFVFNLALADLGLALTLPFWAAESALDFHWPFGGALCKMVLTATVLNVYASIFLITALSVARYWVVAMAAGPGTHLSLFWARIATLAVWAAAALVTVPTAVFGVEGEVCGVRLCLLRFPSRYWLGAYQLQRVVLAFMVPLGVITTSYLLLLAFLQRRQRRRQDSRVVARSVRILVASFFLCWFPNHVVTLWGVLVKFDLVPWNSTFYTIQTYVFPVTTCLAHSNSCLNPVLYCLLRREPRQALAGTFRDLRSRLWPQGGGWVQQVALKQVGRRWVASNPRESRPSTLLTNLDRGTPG

Substance: relaxin3: Human relaxin3 (SEQ ID NO: 6), produced recombinantly; mature peptide of A- and B-chain linked by disulfide bridges
- stimulation of Ca2+ mobilization (GPCR135 [1]): stimulated Ca2+ mobilization
- stimulation of Ca2+ mobilization (GPCR135 [1]; listed as Relaxin3): stimulated Ca^2+ mobilization
- inhibition of forskolin induced β-galactosidase expression (GPCR142 [2]): dose-dependently inhibits
- stimulation of Ca2+ mobilization [3]: did not respond
- displacement of 125I-relaxin3 binding to GPCR142 (GPCR142 [4]): specifically displaced
- displacement of 125I-relaxin3 binding to GPCR135 (GPCR135 [5]): specifically displaced
